{
  "source": "patent US20110098224A1",
  "about": "“PROTEIN KINASE C PEPTIDE MODULATORS OF ANGIOGENESIS” (priority 2005, published 2011)",
  "key": {"[1]": {"system": "new vessel growth", "settings": "rats, given systemically; cited from earlier work"}, "[2]": {"assay": "Stability testing of peptide variants (scored)", "type": "physicochemical", "text": "Stability, Miles Assay activity and corneal angiogenesis activities of a number of the peptides were investigated, and scored."}, "[3]": {"assay": "Topical distribution of radiolabeled TAT peptide after instillation to rabbit eyes", "type": "in vivo", "settings": "rabbit eye", "procedure": "Radiolabeled TAT peptide [^14C]-YGXaaRKKRRQRRR (SEQ ID NO:19) (10 μCi) was applied in 5 instillations to each eye (50 μCi total—4 rabbits, 2 eyes each, n=8 eyes, 3 mg total applied to each eye). Each application was 1 hour apart, animals sacrificed 15 minutes after last application. Tissue samples were taken and assayed to determine topical distribution."}, "[4]": {"system": "VEGF-induced vascular permeability", "assay": "Miles assay (Evans Blue dye extravasation after intradermal VEGF with PKC modulator)", "type": "in vivo", "settings": "increasing VEGF doses", "procedure": "In this study animals were injected intravenously with Evans Blue Dye. Animals were administered VEGF in increasing doses with a PKC modulator intradermally. […] The spots were removed, the dye extracted and quantities were measured spectrophotometrically.\nA parent compound, βIV5-3 (SEQ ID NO:6) and a peptide variant—a linear version of the peptide, linear βI, having the sequence […] (SEQ ID NO:18)—were tested in the Miles assay.\nThe Miles assay was similarly performed with a βIPKC (βIV5-3 (SEQ ID NO:6)) inhibitor, a βIIPKC (βIIV5-3 (SEQ ID NO:8)) inhibitor, a classical ((β-, α-, γPKC) PKC inhibitor (βC2-4 (SEQ ID NO:10), and the scrambled control 1 peptide from Example 2 (SEQ ID NO:12) conjugated to TAT (SEQ ID NO:5)."}, "[5]": {"system": "primary rat retinal pigment epithelial cells (RPEs)", "settings": "cited from earlier work"}},
  "data": [
    {"compound": "Cn1cc(C2=C(c3cn(C4CCN(Cc5ccccn5)CC4)c4ccccc34)C(=O)NC2=O)c2ccccc21", "note": "[LY317615]", "values": [
      {"measurement": "new vessel growth", "setting": "[1]", "result": "prevent new vessel growth"}
    ]},
    {"compound": "GKLFIMNAGGYGRKKRRQRRR [Linear bI (6)]", "values": [
      {"measurement": "Stability testing", "setting": "[2]", "result": "++"}
    ]},
    {"compound": "GKLFIMNLDGYGRKKRRQRRR [Linear bI (3)]", "values": [
      {"measurement": "Stability testing", "setting": "[2]", "result": "++"}
    ]},
    {"compound": "[^14C]-YGXaaRKKRRQRRR [Radiolabeled TAT peptide]", "values": [
      {"measurement": "Topical distribution, Sclera", "setting": "[3]; 5 instillations 1 hour apart, 3 mg total per eye, 15 minutes after last application", "result": 28.4, "unit": "μ/g tissue"},
      {"measurement": "Choroid, applied total dose", "setting": "[3]; topical", "result": 0.003, "unit": "%"},
      {"measurement": "Retina, applied total dose", "setting": "[3]; topical", "result": 0.001, "unit": "%"},
      {"measurement": "Sclera, applied total dose", "setting": "[3]; topical", "result": 0.134, "unit": "%"},
      {"measurement": "Vitreous, applied total dose", "setting": "[3]; topical", "result": 0.006, "unit": "%"}
    ]},
    {"compound": "GKLFIMNADGYGRKKRRQRRR [Linear bI (4)]", "values": [
      {"measurement": "Stability testing", "setting": "[2]", "result": "++"}
    ]},
    {"compound": "GKLFIMNGGYGRKKRRQRRR (GKLFIMNLSGYGRKKRRQRRR) [linear bI, a linear version of the peptide βIV5-3]", "values": [
      {"measurement": "VEGF-induced vascular permeability in comparison to vehicle alone", "setting": "[4]", "result": "reduced vascular permeability"}
    ]},
    {"compound": "GQEVIRNGGYGRKKRRQRRR [linear bII]", "values": [
      {"measurement": "Stability testing", "setting": "[2]", "result": "−"}
    ]},
    {"compound": "CCCCCCCCCCCCCC(=O)O[C@@H]1[C@@H](C)[C@@]2(O)[C@@H](C=C(CO)C[C@]3(O)C(=O)C(C)=C[C@@H]23)[C@@H]2C(C)(C)[C@]12OC(C)=O", "note": "[PMA]", "values": [
      {"measurement": "PKC-delta level in RPEs", "setting": "[5]; exposure for 24 hours", "result": "significantly down regulated"},
      {"measurement": "Secretion of VEGF", "setting": "[5]; normal or high glucose, or hypoxia, treatment for 24 hours", "result": "significantly reduced"}
    ]},
    {"compound": "GKLFIMNLSGYGRKKRRQRRR (GKLFIMNAGGYGRKKRRQRRR) [bI linear analog]", "values": [
      {"measurement": "Stability testing", "setting": "[2]", "result": "++"}
    ]},
    {"compound": "GSLNPEWNETGGYGRKKRRQRRR [linear bC2-4]", "values": [
      {"measurement": "Stability testing", "setting": "[2]", "result": "+++"}
    ]},
    {"compound": "GEEVIRNISGYGRKKRRQRRR [bII linear analog]", "values": [
      {"measurement": "Stability testing", "setting": "[2]", "result": "+++"}
    ]},
    {"compound": "GKLFIMNLGYGRKKRRQRRR [Linear bI (5)]", "values": [
      {"measurement": "Stability testing", "setting": "[2]", "result": "+++"}
    ]}
  ]
}
